Earlier results in article PMC8070256, “Feasibility of Developing Radiotracers for MDM2: Synthesis and Preliminary Evaluation of an ^18F-Labeled Analogue of the MDM2 Inhibitor SP-141” (Pharmaceuticals, 2021).

Target: MDM2 (Homo sapiens) (UniProt Q00987)
Sequence (Q00987 whole entry): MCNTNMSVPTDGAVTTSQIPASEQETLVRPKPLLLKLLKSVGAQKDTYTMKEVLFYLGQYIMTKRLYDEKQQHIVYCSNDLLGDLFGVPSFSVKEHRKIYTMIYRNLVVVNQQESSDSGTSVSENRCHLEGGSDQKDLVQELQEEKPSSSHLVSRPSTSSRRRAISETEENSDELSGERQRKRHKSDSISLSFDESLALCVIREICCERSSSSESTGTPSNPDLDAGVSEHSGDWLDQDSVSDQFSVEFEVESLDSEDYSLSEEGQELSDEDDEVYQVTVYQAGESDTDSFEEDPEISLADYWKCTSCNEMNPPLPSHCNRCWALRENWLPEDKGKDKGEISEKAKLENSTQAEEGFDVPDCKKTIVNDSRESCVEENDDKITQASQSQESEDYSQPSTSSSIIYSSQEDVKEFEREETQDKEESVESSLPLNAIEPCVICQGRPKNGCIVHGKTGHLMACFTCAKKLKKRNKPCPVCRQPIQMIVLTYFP

Q: Which Ki does the source give for p53 peptide (from UniProt P04637) here?
A: 1.1 µM
